Laboratory results reported in article PMC12774641.

Molecular target: SpβL1 Namat (nicotinamide ADP-ribose transferase), untagged (SpβL1 phage)
Experiment: mass photometry; Refeyn mass photometry; 50 nM Namat after gel filtration

## SpβL1 Namat (nicotinamide ADP-ribose transferase), untagged (enzyme)
  stoichiometry N: 2
